Here are results for one substance from patent US20210063414A1, “METHODS FOR PREVENTING AND/OR TREATING BONE LOSS CONDITIONS BY MODULATING IRISIN” (Dana-Farber Cancer Institute, Inc., priority 2018, published 2021).

Common to all, as to test: Crosslinking/co-immunoprecipitation/mass spectrometry (TMT quantitative proteomics) to identify irisin receptors
Type in all cases: binding

Experiment [1] concerns the target T1, MLO-Y4 cell surface proteins (Mus musculus, UniProt Q6ZPE2).
T1 construct: endogenous in cells; host or cells: MLO-Y4
The settings on record: co-precipitated protein Sbf1 (MTMR5_MOUSE). The method in brief:
(§1)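 Mouse MLO-Y4 cells were switched to serum-free FreeStyle medium for 4 h, chilled, then exposed to 10 nM His-tagged irisin (or adipsin as control) for 20 min. Cells were crosslinked with 1.5 mM DTSSP (30 min, ice), and bound proteins were pulled down on Ni-NTA and eluted with 250 mM imidazole. Eluates were separated by SDS-PAGE, trypsin-digested in gel, TMT 6-plex labelled and quantified by MS3-based LC-MS/MS on an Orbitrap Fusion Lumos.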

Experiment [2] deals with T2, MLO-Y4 cell surface proteins (Mus musculus, UniProt Q3U1J4).
T2 construct: endogenous in cells; host or cells: MLO-Y4
The settings on record: co-precipitated protein Ddb1 (DDB1_MOUSE). In a few lines:
as §1

For experiment [3], the target named is T3, MLO-Y4 cell surface proteins (Mus musculus, UniProt C0HKE1).
T3 construct: endogenous in cells; host or cells: MLO-Y4
The settings on record: co-precipitated protein Hist1h2ab (H2A1_MOUSE). The method in brief:
as §1

The target of experiment [4] is T4, MLO-Y4 cell surface proteins (Mus musculus, UniProt P16675).
T4 construct: endogenous in cells; host or cells: MLO-Y4
T4 sequence (P16675 24-474): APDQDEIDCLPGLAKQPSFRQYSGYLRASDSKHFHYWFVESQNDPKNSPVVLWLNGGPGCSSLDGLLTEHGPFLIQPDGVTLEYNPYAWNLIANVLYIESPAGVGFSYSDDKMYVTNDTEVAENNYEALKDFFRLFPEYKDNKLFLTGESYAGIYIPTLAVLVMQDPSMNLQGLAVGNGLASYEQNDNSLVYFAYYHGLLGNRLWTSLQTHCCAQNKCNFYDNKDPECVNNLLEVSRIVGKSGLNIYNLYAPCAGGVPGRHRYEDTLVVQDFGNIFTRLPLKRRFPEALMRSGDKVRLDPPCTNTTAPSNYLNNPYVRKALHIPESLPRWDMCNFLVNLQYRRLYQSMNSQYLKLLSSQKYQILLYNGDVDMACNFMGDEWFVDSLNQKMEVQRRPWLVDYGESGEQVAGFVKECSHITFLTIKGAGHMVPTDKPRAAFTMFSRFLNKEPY
The settings on record: co-precipitated protein Ctsa (PPGB_MOUSE). In a few lines: as §1

For experiment [5], the target named is T5, MLO-Y4 cell surface proteins (Mus musculus, UniProt P59999).
T5 construct: endogenous in cells; host or cells: MLO-Y4
The settings on record: co-precipitated protein Atpc4 (ARPC4_MOUSE). The method in brief: as §1

Experiment [6] concerns the target T6, MLO-Y4 cell surface proteins (Mus musculus, UniProt Q921N7).
T6 construct: endogenous in cells; host or cells: MLO-Y4
T6 sequence (Q921N7 78-253): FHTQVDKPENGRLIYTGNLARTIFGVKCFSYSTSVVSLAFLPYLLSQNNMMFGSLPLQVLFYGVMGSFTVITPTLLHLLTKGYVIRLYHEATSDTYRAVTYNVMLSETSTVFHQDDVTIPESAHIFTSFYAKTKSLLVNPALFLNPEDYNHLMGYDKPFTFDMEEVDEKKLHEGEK
The settings on record: co-precipitated protein Tmem70 (TMM70_MOUSE). In a few lines: as §1

For experiment [7], the target named is T7, MLO-Y4 cell surface proteins (Mus musculus, UniProt O35143).
T7 construct: endogenous in cells; host or cells: MLO-Y4
T7 sequence (O35143 26-106): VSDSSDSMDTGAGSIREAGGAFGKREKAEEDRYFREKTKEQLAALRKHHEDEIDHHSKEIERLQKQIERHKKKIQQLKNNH
The settings on record: co-precipitated protein Atpif1 (ATIF1_MOUSE). In a few lines:
as §1

T2 sequence (Q3U1J4 whole entry): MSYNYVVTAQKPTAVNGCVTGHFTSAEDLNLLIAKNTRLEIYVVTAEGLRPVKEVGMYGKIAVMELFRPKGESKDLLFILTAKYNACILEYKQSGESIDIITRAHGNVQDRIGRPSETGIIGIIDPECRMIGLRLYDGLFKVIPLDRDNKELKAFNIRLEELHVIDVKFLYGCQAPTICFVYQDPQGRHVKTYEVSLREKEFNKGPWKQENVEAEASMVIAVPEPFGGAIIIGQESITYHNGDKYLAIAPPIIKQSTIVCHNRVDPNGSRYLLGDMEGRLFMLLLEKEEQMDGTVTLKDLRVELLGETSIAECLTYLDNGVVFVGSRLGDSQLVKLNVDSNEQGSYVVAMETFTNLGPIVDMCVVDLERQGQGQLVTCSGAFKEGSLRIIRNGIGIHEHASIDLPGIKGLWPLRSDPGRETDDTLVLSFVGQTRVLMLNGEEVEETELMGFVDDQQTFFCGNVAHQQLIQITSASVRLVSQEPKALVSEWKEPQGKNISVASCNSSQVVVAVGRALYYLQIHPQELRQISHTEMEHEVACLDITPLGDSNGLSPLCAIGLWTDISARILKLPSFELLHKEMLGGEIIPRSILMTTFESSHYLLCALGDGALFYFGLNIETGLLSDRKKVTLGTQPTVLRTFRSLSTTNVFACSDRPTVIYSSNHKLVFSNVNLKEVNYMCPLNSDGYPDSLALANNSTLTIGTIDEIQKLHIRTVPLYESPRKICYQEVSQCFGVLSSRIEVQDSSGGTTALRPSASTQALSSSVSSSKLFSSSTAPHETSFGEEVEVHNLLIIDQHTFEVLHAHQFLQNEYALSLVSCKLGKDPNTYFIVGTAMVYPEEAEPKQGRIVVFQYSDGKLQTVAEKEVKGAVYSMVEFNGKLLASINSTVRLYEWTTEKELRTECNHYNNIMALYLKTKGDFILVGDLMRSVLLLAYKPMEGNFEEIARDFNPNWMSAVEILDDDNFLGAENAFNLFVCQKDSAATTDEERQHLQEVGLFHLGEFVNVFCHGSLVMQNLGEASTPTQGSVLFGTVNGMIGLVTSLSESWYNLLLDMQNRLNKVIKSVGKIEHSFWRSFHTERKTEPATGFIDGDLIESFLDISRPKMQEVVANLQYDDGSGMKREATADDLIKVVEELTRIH
T1 sequence (Q6ZPE2 whole entry): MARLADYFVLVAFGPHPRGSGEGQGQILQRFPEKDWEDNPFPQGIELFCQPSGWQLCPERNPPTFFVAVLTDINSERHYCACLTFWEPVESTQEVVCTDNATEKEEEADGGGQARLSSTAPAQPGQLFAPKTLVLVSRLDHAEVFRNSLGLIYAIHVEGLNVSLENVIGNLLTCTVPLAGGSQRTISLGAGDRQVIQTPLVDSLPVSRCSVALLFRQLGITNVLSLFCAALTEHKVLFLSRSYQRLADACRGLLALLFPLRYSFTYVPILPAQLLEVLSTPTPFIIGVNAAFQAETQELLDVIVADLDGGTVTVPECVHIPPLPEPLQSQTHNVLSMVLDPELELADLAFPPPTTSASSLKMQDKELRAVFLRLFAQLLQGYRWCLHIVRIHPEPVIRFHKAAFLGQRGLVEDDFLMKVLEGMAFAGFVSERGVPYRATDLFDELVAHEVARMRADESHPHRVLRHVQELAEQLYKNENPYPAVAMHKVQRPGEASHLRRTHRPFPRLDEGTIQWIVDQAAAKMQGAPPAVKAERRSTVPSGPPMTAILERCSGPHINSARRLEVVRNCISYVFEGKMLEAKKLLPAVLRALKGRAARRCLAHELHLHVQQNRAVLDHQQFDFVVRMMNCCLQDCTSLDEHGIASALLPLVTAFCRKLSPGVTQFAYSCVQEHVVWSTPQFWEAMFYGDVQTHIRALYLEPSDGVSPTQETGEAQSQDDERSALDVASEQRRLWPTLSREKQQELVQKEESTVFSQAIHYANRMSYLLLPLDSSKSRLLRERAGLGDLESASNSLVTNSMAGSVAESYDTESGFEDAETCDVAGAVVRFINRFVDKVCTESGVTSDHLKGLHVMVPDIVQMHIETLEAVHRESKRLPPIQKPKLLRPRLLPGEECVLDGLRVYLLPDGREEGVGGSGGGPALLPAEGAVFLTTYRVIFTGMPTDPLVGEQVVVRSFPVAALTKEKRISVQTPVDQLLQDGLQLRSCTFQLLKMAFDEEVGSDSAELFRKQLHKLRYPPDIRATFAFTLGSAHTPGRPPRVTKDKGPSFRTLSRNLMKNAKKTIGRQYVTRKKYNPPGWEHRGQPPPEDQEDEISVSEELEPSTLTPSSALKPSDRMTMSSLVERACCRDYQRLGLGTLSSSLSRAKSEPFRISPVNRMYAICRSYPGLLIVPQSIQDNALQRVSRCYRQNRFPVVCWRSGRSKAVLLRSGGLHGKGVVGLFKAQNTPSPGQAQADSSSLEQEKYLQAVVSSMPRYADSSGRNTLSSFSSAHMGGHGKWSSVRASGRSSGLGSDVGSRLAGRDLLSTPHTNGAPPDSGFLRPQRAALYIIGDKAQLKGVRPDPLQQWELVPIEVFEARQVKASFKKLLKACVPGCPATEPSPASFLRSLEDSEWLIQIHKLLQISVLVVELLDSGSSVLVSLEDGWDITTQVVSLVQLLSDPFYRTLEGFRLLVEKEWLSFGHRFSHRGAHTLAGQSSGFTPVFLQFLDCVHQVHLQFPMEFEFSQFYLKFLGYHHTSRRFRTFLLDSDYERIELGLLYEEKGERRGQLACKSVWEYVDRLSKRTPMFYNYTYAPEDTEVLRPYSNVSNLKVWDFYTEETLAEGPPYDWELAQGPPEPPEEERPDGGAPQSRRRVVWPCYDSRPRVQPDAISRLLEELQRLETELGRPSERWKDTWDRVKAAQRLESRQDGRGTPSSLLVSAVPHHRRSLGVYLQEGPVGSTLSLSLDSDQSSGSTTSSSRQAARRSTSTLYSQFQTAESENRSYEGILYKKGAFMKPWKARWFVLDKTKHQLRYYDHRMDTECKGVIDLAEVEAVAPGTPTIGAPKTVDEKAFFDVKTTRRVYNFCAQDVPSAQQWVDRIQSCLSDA

adipsin: the TMT signal-to-noise ratio worked out at 71.1304 in experiment [1]; 426.44 in experiment [2]; 273.934 in experiment [3]; 357.95 in experiment [4]; 138.296 in experiment [5]; 88.4078 in experiment [6]. Besides, in experiment [7], the TMT signal-to-noise ratio is 454.155.
